EP4806514A2 (Lepu Biopharma Co., Ltd., dated 2025)
Substitutions are numbered along the chain they refer to.

T1: human CDH17, full length, expressed on cells (HEK293-hCDH17); AsPC-1, HCT-8, AGS, LoVo, KATO III, HT-29 tumor … (human, UniProt Q12864 23-832)
T1 construct: also called human CDH17 expressed on tumor cells
T1 sequence: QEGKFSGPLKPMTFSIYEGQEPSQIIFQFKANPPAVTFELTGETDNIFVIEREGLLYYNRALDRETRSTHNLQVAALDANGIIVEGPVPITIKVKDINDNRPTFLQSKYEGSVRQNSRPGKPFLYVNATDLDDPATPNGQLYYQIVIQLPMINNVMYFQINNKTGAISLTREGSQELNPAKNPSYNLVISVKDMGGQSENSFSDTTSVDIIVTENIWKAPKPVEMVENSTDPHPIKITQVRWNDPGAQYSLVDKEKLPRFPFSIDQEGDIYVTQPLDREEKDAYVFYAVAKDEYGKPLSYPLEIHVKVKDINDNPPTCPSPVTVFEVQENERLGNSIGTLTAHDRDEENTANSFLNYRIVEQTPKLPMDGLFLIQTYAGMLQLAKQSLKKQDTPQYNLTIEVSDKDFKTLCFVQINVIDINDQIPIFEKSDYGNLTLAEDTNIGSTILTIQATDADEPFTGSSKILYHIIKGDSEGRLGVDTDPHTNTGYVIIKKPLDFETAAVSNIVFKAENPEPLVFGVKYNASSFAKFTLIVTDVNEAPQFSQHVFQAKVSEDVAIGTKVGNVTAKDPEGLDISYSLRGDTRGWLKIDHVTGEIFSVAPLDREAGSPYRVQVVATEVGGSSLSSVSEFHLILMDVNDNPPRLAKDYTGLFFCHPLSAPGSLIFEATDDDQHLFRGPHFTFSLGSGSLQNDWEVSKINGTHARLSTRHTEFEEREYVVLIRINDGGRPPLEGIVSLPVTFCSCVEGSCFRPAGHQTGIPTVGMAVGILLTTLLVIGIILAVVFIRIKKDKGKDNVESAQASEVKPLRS

T2: human CDH16 protein (hCDH16-his, Novoprotein, Cat. No. CJ16) (human, UniProt O75309 19-786)
T2 construct: Bought; also called human CDH16-his
T2 sequence (looked up): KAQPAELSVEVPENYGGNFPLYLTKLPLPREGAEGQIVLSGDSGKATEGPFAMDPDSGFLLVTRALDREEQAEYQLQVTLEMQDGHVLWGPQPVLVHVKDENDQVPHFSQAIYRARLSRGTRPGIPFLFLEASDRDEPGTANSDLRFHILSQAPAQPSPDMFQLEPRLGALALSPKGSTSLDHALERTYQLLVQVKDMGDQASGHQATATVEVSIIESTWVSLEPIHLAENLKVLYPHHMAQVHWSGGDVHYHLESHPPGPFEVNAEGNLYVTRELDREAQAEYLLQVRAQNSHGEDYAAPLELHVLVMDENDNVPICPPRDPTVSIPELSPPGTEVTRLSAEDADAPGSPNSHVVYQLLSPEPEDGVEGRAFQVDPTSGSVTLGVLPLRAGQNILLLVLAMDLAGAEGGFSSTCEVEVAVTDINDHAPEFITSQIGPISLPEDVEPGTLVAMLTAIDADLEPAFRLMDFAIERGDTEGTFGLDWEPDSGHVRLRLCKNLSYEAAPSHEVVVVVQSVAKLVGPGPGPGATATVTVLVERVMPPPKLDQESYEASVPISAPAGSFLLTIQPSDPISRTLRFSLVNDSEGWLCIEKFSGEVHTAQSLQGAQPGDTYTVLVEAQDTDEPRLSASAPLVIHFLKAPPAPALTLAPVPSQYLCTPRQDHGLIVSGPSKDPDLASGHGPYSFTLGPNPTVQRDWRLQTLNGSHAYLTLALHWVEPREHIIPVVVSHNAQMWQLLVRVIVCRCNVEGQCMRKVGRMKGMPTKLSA

T3: hCDH17-his (full length extracellular domain of human CDH17, Q23-M787, his tag at the C-terminal) (human, UniProt Q12864 23-787)
T3 construct: Limits of the construct (UniProt Q12864, Q23-M787, C-terminal his tag); also called human CDH17-his protein; human CDH17 protein
T3 sequence: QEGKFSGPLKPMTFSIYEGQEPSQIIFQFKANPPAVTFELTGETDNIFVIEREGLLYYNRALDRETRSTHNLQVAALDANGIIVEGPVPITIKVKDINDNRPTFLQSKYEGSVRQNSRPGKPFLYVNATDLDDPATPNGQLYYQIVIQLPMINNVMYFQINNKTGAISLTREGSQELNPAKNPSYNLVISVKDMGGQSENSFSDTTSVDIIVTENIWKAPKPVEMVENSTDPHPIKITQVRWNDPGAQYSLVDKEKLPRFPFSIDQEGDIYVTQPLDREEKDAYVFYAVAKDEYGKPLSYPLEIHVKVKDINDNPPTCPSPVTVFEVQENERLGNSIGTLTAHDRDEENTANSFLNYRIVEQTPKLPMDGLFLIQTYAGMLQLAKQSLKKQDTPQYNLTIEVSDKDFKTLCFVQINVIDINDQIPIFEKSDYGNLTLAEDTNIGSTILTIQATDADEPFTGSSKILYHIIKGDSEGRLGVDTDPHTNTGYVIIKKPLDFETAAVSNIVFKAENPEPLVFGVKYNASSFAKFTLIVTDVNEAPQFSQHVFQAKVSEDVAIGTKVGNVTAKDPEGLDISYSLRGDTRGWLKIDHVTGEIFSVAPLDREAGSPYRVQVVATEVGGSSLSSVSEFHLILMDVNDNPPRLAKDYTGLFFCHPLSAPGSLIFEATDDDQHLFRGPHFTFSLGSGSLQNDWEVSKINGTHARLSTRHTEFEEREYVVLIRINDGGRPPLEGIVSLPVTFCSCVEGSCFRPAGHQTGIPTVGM

B1: 29H8D3-z12p3 (antibody, V domains shown)
VH: QVQLVQSGAEVKKPGASVKVSCKASGYTFTDHTIHWMRQRPGQGLEWIGYIYPRDGYTKYNEKFKDRATLTADTSTSTAYMELRSLRSDDTAVYYCARFYYGYWYFDVWGQGTTVTVSS
VL: DIVMTQSPLSLPVTPGEPASISCRSSKSLLRSNANTYLYWFLQKPGQSPQVLIYRMSNLASGVPDRFSGSGSGTDFTLKISRVEAEDVGVYYCMQHLEYPFTFGQGTKLEIK
notes: PTM-removed variant of 29H8D3-z12
B2: 29H8D3-z12p4 (antibody, V domains shown)
VH: B1 VH with D55E
VL: B1 VL
notes: as for B1
B3: 29H8D3-z12p7 (antibody, V domains shown)
VH: B1 VH with D55E
VL: B1 VL with N35Q
notes: as for B1
B4: 29H8D3-z12p22 (antibody, V domains shown)
VH: B1 VH
VL: B1 VL with A34G, M94L
notes: PTM-removed variant of 29H8D3-z12; VH is that of 29H8D3-z12
B5: 143H10E4-z6 (antibody, V domains shown)
VH: QVQLVQSGAEVKKPGSSVKVSCKASGSTFTDHTIHWVRQAPGQGLEWIGYIYPVYGYTQNNEKFKGRATITADKSTSTAYMELSSLRSEDTAVYYCARSRDSNPYYFDYWGQGTTVTVSS
VL: EIVLTQSPDFQSVTPKEKVTITCTVSSSISSSNLHWYQQKPDQSPKPWIYGTSNLASGVPSRFSGSGSGTDYSLTINSLEAEDAATYYCQQWSSYPFTFGQGTKLEIK
notes: Humanized, human IgG1 constant region; also called 143H10E4 HU-VH1-1 / HU-VL1-3
B6: 143H10E4-z3 (antibody, V domains shown)
VH: B5 VH with I48M, A68V
VL: B5 VL
notes: Humanized, human IgG1 constant region; also called 143H10E4 HU-VH1-0 / HU-VL1-3
B7: 143H10E4-z9 (antibody, V domains shown)
VH: B5 VH with S84N
VL: B5 VL
notes: Humanized, human IgG1 constant region; also called 143H10E4 HU-VH1-2 / HU-VL1-3
B8: 29D2D7-z19p1 (antibody, V domains shown)
VH: QVQLVQSGAEVKKPGASVKVSCKASGYTFTDYDMHWVKQAPGQGLEWIGGFDPESAGTVYNLRFKDKATLTADKSTSTAYMELRSLRSEDTAVYYCARKGYYSVSSPFTYWGQGTLVTVSS
VL: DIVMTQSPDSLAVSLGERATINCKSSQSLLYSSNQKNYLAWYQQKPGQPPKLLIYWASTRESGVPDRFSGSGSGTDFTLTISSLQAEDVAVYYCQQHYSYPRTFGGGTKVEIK
notes: PTM-removed variant of 29D2D7-z19 (VL CDR3 cysteine replaced)
B9: 29D2D7-z19p2 (antibody, V domains shown)
VH: B8 VH
VL: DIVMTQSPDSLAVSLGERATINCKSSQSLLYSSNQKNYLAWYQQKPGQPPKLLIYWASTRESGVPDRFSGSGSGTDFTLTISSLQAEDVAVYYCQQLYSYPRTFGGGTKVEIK
notes: PTM-removed variant of 29D2D7-z19; VH is that of 29D2D7-z19
B10: 103G6G1 chimeric mAb (antibody, V domains shown)
VH: EVKLVESEGGLVQPGSSMKLSCTASGFTFSDFYMAWVRQVPEKGLEWVANINYDSTITYYLDSLKSRFIISRDNAENILYLQMSSLKSEDTATYYCARLLYYYGSLYFDVWGTGTTVTVSS
VL: DIQMTQSPASLSASVGETVTITCRASENIYSYLAWYQQKQGKSPQLLVYDAKTLAEGVPSRFSGSGSGTQFSLKINSLQPEDFGSYYCQHHYGIPITFGAGTNLELK
notes: Mouse variable regions fused to human IgG1 constant region
B11: 95F2C2F12 chimeric mAb (antibody, V domains shown)
VH: QVQLQQSGAELMKPGASVKLSCKATGYTFTGYWIEWIKQRPGHGLEWIGEILPGSGSTNYNEKFKGKATFTADTSSNTAYMELSSLTTEDSAIYYCARAGYNNWGQGTTLTVSS
VL: DIQMTQSPSSLSASLGERVSLTCRASQDIGRSVNWLQQEPDGTIKRLIYATSSLESGVPKRFSGSRSGSDYFLTISSLESEDFVDYYCLQYASSPLTFGAGTKLELK
notes: as for B10

Target: T1, human CDH17, full length, expressed on …
Assay: flow cytometry, HCT-8 cells

| binding result | Binder |
| --- | --- |
| binds | B1 |
| binds | B2 |
| binds | B3 |
| binds | B4 |
| binds | B5 |
| binds | B6 |
| binds | B7 |
| binds | B8 |
| binds | B9 |

Target: T2, human CDH16 protein (hCDH16-his, …)
Assay: ELISA, hCDH16-his coated at 1 ug/mL

| Binder | binding result |
| --- | --- |
| B10 | no binding (tested: titrated from 100 nM) |
| B11 | no binding (tested: titrated from 100 nM) |

Target: T1, human CDH17, full length, expressed on …
Assay: flow cytometry, HEK293-hCDH17 cells

| binding result | Binder |
| --- | --- |
| binds | B10 |
| binds | B11 |

Target: T3, hCDH17-his (full length extracellular …)
Assay: SPR (Biacore 8K), antibody captured on Protein A chip, hCDH17-his injected

| binding result | Binder |
| --- | --- |
| binds | B10 |
| binds | B11 |
| binds | B5 |
| binds | B6 |
| binds | B7 |

Target: T3, hCDH17-his (full length extracellular …)
Assay: SPR (Biacore 8K), two doses, antibody captured on Protein A chip, hCDH17-his at 25 nM and 100 nM

| binding result | Binder |
| --- | --- |
| binds | B1 |
| binds | B2 |
| binds | B3 |
| binds | B4 |
